Reference: patent US20200239579A1 (Genmab, published 2020)

Experiments:
[1] = target: T1, human PD-L1 (full length, on cells) (human, UniProt Q9NZQ7 19-290); test: flow cytometry on HEK293 cells expressing wild type or alanine-mutant PD-L1
T1 construct: The entry holds the signal peptide; also called CD274; B7H1

[2] = target: T1, human PD-L1 (full length, on cells); test: flow cytometry on MDA-MB-231 cells, PE anti-human IgG secondary, MFI (PE)
Method: (§1) Cells (3-5×10⁴ cells/well) were incubated in polystyrene 96-well round-bottom plates (Greiner bio-one, cat. no. 650101) with serial dilutions of antibodies (range 0.0001 to 10 μg/mL in 5-fold dilution steps) in 50 μL PBS/0.1% BSA/0.02% azide (staining buffer) at 4° C. for 30 min.
(§2) After washing twice in staining buffer, cells were incubated in 50 μL secondary antibody at 4° C. for 30 min. As a secondary antibody, R-Phycoerythrin (PE)-conjugated goat-anti-human IgG F(ab′)₂ (Cat. no. 109-116-098, Jackson ImmunoResearch Laboratories, Inc., West Grove, Pa.) diluted 1:500 in staining buffer, was used for all experiments. Next, cells were washed twice in staining buffer, re-suspended in 20 μL staining buffer and analyzed on an iQue screener (Intellicyt Corporation, USA). Binding curves were analyzed using non-linear regression (sigmoidal dose-response with variable slope) using GraphPad Prism V75.04 software (GraphPad Software, San Diego, Calif., USA).

[3] = target: T1, human PD-L1 (full length, on cells); test: flow cytometry on HELA cells, PE anti-human IgG secondary, MFI (PE)
Method: as §1, §2

[4] = target: T2, human PD-L2 (full length, on CHO cells) (human, UniProt Q9BQ51 20-273); test: flow cytometry on CHO cells expressing human PD-L2
T2 construct: whole, on cells; also called CHO-PD-L2 cells
T2 sequence (looked up): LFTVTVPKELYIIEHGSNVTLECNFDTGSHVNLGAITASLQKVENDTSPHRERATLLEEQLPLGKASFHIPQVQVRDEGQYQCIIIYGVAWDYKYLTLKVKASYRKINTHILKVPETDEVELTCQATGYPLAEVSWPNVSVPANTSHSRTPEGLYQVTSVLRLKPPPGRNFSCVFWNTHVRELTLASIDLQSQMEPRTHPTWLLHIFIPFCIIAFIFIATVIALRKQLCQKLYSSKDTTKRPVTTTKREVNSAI
Method: as §1, §2
A PE-conjugated PD-L2 specific antibody (Mylteni, clone MIH18; cat. no. 130-098-651) was used as positive control.

[5] = target: T3, cynomolgus monkey PD-L1 (full length, on CHO cells) (cynomolgus monkey (Macaca fascicularis), UniProt G7PSE7 19-290); test: flow cytometry on CHO cells transfected with cynomolgus PD-L1, PE anti-human IgG secondary, MFI (PE)
T3 construct: whole, on cells; also called PDL1 Mf; cynomolgus PD-L1
T3 sequence (G7PSE7 entry or part of it): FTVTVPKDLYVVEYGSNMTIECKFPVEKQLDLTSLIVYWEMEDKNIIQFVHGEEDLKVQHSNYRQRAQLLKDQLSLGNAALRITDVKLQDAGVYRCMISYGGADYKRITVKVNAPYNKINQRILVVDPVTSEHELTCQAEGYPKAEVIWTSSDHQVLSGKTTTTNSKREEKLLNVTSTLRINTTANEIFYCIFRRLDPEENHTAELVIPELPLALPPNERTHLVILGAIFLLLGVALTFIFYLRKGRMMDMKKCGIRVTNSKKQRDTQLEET
Method: as §1, §2
Binding to CHO cells expressing cynomolgus PD-L1 was determined by flow cytometry using a method as described above.

[6] = target: T1, human PD-L1 (full length, on cells); test: flow cytometry on PC3 cells, PE anti-human IgG secondary, MFI (PE)
Method: as §1, §2

[7] = target: T4, PDLoneECDHisCtag (human, UniProt Q9NZQ7 19-238); test: BLI cross-block, second antibody on PDLoneECDHisCtag held by immobilised 632; plain = non-blocking
T4 construct: Expressed in HEK-293F cells; theoretical molecular weight 29 kDa; also called recombinant human PD-L1 ECD; human PD-L1 (BLI); not shown: C-terminal His-tag; C-tag
T4 sequence (Q9NZQ7 19-238, form in doubt): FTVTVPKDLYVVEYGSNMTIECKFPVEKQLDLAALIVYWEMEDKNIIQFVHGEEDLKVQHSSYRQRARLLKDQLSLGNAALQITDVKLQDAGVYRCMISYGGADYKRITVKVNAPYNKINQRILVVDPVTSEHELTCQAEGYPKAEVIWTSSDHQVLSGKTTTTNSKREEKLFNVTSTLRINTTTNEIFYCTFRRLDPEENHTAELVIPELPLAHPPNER
Method: (§3) Antibody cross-block testing was performed using biolayer interferometry (BLI) on an Octet HTX instrument (ForteBio). Antibodies (20 μg/ml in 10 mM sodium acetate buffer pH 6.0 (ForteBio)) were immobilized on Amine-Reactive 2nd Generation (AR2G) biosensors (ForteBio) according to the instructions of the manufacturer. After a baseline (50 s) in Sample Diluent (ForteBio), biosensors containing immobilized antibodies were loaded for 500 s with PDLoneECDHisCtag (100 nM or 2.7 μg/ml), after which the association response of a second antibody (10 μg/ml) was followed for 500 s. Biosensors were regenerated by using 3 times 5 s alternating exposures to 10 mM glycine pH 2.5 and Sample Diluent. The experiment was repeated with a new set of second antibodies starting from the baseline step. Each biosensor was used 6 times. The experiment was performed at 30° C. using a shaker speed of 1000 rpm. Data was analyzed using Data Analysis Software v9.0.0.12 (ForteBio). The Y-axis was aligned to the association step and Savitzky-Golay filtering was applied. The average buffer response was subtracted from the association response of the second antibody in order to correct for the dissociation of PDLoneECDHisCtag from the immobilized antibody. The corrected association responses were plotted in a matrix format.

[8] = target: T4, PDLoneECDHisCtag; test: BLI cross-block, second antibody on PDLoneECDHisCtag held by immobilised 421-LC91S; bold = blocking
Method: as §3

[9] = target: T4, PDLoneECDHisCtag; test: BLI cross-block, second antibody on PDLoneECDHisCtag held by immobilised 516; bold = blocking
Method: as §3

[10] = target: T4, PDLoneECDHisCtag; test: BLI cross-block, second antibody on PDLoneECDHisCtag held by immobilised 511-LC33S; plain = non-blocking
Method: as §3

[11] = target: T4, PDLoneECDHisCtag; test: BLI cross-block, second antibody on PDLoneECDHisCtag held by immobilised 547; plain = non-blocking
Method: as §3

[12] = target: T4, PDLoneECDHisCtag; test: BLI cross-block, second antibody on PDLoneECDHisCtag held by immobilised MPDL; bold = blocking
Method: as §3

[13] = target: T4, PDLoneECDHisCtag; test: BLI cross-block, second antibody on PDLoneECDHisCtag held by immobilised 476-N101Q-LC33S; plain = non-blocking
Method: as §3

[14] = target: T1, human PD-L1 (full length, on cells); test: flow cytometry on MDA-MB-231 cells, PE anti-human IgG secondary, MFI (PE); remark: listed apart in the source
Method: as §1, §2

T1 sequence (Q9NZQ7 19-290 limits assumed): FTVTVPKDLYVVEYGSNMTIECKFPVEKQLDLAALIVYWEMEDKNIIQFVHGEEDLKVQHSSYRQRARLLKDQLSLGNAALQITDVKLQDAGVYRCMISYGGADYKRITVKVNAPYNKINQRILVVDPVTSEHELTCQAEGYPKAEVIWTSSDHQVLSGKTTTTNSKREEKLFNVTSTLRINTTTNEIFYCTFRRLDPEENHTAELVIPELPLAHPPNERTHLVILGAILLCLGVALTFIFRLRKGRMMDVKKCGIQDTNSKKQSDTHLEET

B1: IgG1-625-FEAR-A488 (antibody, V domains shown)
VH: HMQLVESGGGVAQPGRSLRLSCAASGFTFSNYGMHWVRQAPGRGLEWLAVMSYDGETKYYADSVKGRFTISRDNSENTLFLQMNSLRAEDTAVYYCAKDTSNGWNYYFYGMDVWGQGTTVTVSS
VL: SYELTQPPSVSVSPGQTARITCSGDALPKKFASWYQQKSGQAPVLVIYEDSKRPSGIPERVSGSSSGTMATLTISGAQTEDEADYYCYSTDRSGYHWVFGGGTKLTVL
notes: also called control antibody of the alanine scan
[1]
  binding result: binds

B2: bsIgG1-huCD3-H1L1-FEAL×547-FEAR (bispecific antibody)
heavy 1: not shown
VL: not shown
heavy 2: EVQLLEPGGGLVQPGGSLRLSCEASGSTFSTYAMSWVRQAPGKGLEWVSGFSGSGGFTFYADSVRGRFTISRDSSKNTLFLQMSSLRAEDTAVYYCAIPARGYNYGSFQHWGQGTLVTVSSASTKGPSVFPLAPSSKSTSGGTAALGCLVKDYFPEPVTVSWNSGALTSGVHTFPAVLQSSGLYSLSSVVTVPSSSLGTQTYICNVNHKPSNTKVDKRVEPKSCDKTHTCPPCPAPEFEGGPSVFLFPPKPKDTLMISRTPEVTCVVVAVSHEDPEVKFNWYVDGVEVHNAKTKPREEQYNSTYRVVSVLTVLHQDWLNGKEYKCKVSNKALPAPIEKTISKAKGQPREPQVYTLPPSREEMTKNQVSLTCLVKGFYPSDIAVEWESNGQPENNYKTTPPVLDSDGSFFLYSRLTVDKSRWQQGNVFSCSVMHEALHNHYTQKSLSLSPGK
light: SYVLTQPPSVSVAPGQTARITCGGNNIGSKSVHWYQQKPGQAPVLVVYDDNDRPSGLPERFSGSNSGNTATLTISRVEAGDEADYYCQVWDSSSDHVVFGGGTKLTVLGQPKAAPSVTLFPPSSEELQANKATLVCLISDFYPGAVTVAWKADSSPVKAGVETTTPSKQSNNKYAASSYLSLTPEQWKSHRSYSCQVTHEGSTVEKTVAPTECS
[2]
  EC50 (read off the curve): ~0.08 µg/mL
[3]
  EC50 (read off the curve): ~0.02 µg/mL
[4]
  binding result: no binding
[5]
  EC50 (read off the curve): ~0.06 µg/mL
[6]
  EC50 (read off the curve): ~0.03 µg/mL

B3: IgG1-516-FEAR (antibody, V domains shown)
VH: QVQLQESGPGLVKPSDTLSLTCAVSDYSISSNDWWGWIRQPPGKGLEWIGYIYYSGTGYYNPSLKSRVTISIDTSKNQFSLKLNSVTAVDTAVYYCARTRVGARRAFDYWGQGTLVTVSS
VL: SYVLTQPPSVSVAPGQTARITCGGNNIGSKSVHWYQQKPGQAPVLVVYDDSDRPSGIPERFSGSNSGNTATLTISRVEAGDEADYYCQVWDSSSDHVVFGGGTKLTVL
[7]
  association response of the second antibody: 0.6 nm
[8]
  association response of the second antibody: 0 nm
[9]
  association response of the second antibody: 0 nm
[10]
  association response of the second antibody: 0.6 nm
[11]
  association response of the second antibody: 0.7 nm
[12]
  association response of the second antibody: 0 nm
[13]
  association response of the second antibody: 0.7 nm

B4: bsIgG1-huCD3-H1L1-FEAL×338-FEAR (bispecific antibody)
heavy 1: not shown
VL: not shown
heavy 2: EVQVVESGGGLVQPGGSLRLSCAASGFTFSRFWMSWVRQAPGKGLEWVANIKQDGGEKYYVDSVKGRFTISRDNAKNSLYLQMNSLRGEDTAVYYCARDDNWNGHFDYWGQGTLVTVSSASTKGPSVFPLAPSSKSTSGGTAALGCLVKDYFPEPVTVSWNSGALTSGVHTFPAVLQSSGLYSLSSVVTVPSSSLGTQTYICNVNHKPSNTKVDKRVEPKSCDKTHTCPPCPAPEFEGGPSVFLFPPKPKDTLMISRTPEVTCVVVAVSHEDPEVKFNWYVDGVEVHNAKTKPREEQYNSTYRVVSVLTVLHQDWLNGKEYKCKVSNKALPAPIEKTISKAKGQPREPQVYTLPPSREEMTKNQVSLTCLVKGFYPSDIAVEWESNGQPENNYKTTPPVLDSDGSFFLYSRLTVDKSRWQQGNVFSCSVMHEALHNHYTQKSLSLSPGK
light: DIQMTQSPSTLSASVGDRVTITCRASQSISSWLAWYQQKPGKAPNLLIYKASSLESGVPSRFSGSGSGTEFTLTISSLQPDDFATYYCQQYYGSYITFGQGTRLEIKRTVAAPSVFIFPPSDEQLKSGTASVVCLLNNFYPREAKVQWKVDNALQSGNSQESVTEQDSKDSTYSLSSTLTLSKADYEKHKVYACEVTHQGLSSPVTKSFNRGEC
[14]
  EC50 (read off the curve): ~0.1 µg/mL
[3]
  EC50 (read off the curve): ~0.02 µg/mL
[4]
  binding result: no binding
[5]
  EC50 (read off the curve): ~0.09 µg/mL
[6]
  EC50 (read off the curve): ~0.03 µg/mL
